The record followed here is patent US8409825B2, “Method for high-level secretory production of protein” (National Institute of Advanced Industrial Science and …, priority 2007, dated 2013).

The target in data set [1] is T1, human alpha-2,3-sialic acid transferase (ST3GalI) (Homo sapiens, UniProt Q11201).
T1 construct: The catalyst domain of the ST3GalI gene was first amplified via PCR; His6 (N); made in house; host or cells: Ogataea minuta TK10-1-2 derived strains (YT-2 to YT-7), with or without co-expressed O. minuta chaperones; culture supernatant used as crude enzyme
T1 sequence (Q11201 35-340 limits assumed): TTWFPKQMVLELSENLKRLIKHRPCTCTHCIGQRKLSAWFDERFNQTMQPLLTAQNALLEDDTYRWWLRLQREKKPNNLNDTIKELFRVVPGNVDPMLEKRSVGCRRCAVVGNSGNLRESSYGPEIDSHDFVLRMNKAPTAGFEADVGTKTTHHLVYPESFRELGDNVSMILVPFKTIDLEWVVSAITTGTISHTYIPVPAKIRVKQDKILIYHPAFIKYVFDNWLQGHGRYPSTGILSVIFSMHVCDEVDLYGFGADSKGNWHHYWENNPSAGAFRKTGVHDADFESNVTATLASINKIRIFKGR
The data set can be described thus: Sialic acid transferase (ST3GalI) enzyme activity assay of crude enzyme solution, HPLC, core 1-pNP substrate. Type of data set: biochemical. To be noted: for Specific activity: Table 1, culture supernatant equivalent to 10 μU, EndoHf treated, Western blot signal intensity; for Activity: Table 2, culture supernatant, assayed with the elapse of time. As to the method: The YT-2 strain and the YT-3 strain were inoculated in 5 ml of YPAD+KCl medium (2% polypeptone, 1% yeast extract, 2% glucose, adenine (40 mg/l), 0.3 M potassium chloride), and preculture was carried out at 30° C. overnight. Subsequently, 1 ml of a preculture solution was inoculated in 150 ml of YPAD+KCl medium, and culture was carried out at 30° C. for 48 hours. The strains were recovered, resuspended in 100 ml of BMMY+2% casamino acid medium (1% yeast extract, 2% polypeptone, 1.34% Yeast Nitrogen Base without amino acids (Difco), 0.1 M KPi (pH 6.0), 2% casamino acid, 1% methanol), and cultured at 20° C. for 96 hours. Methanol was added to a concentration of 0.5% every 12 hours. After the completion of culture, the culture product was subjected to centrifugation to remove yeast cells, and the resulting solution was designated as a crude enzyme solution.
Enzyme activity was assayed in the following manner. A crude enzyme solution (2 μl) was added to 18 μl of a reaction solution (0.1 M Tris-HCl (pH 7.5), 1 mM MnCl2, 5 mM CMP-NeuAc, 50 μM core 1-pNP), and the reaction was initiated. After the reaction was carried out at 37° C. for 30 minutes, the reaction was terminated via boiling, and HPLC analysis was carried out. A Cosmosil 5C18-ARII column (4.6×250 mm, Nacalai Tesque, Inc.) was used, and a mixture of 0.2 M triethylamine-acetic acid (pH 7.0, solution A) and acetonitrile (solution B) (solution A:solution B=9:1) was used as a mobile phase. The column was equilibrated, the sample was injected therein, and elution was carried out 20 minutes thereafter. Detection was carried out using a UV detector (detection wavelength: 300 nm). A core1-pNP substrate was eluted 14.5 minutes later, and a reaction product, sialylcore1-pNP, was eluted 17 minutes later. The reaction product was quantified based on the peak area, and the result was designated as activity (U). The unit “1 U” was defined as the amount of an enzyme that is necessary to produce 1 μmol of the reaction product per minute.
Western blot analysis was then carried out. The culture supernatants in amounts equivalent to “10 μU” of the YT-2 strain and the YT-3 strain were subjected to treatment with EndoHf (NEB, P0703S) in accordance with the protocol, applied, and then subjected to SDS-PAGE. After electrophoresis, the product was transferred to a PVDF membrane, and Western blotting was carried out in accordance with a conventional technique. A mouse anti-FLAG M2 antibody (Sigma, F1804) was used as a primary antibody and an anti-mouse IgG antibody-alkaline phosphatase composite was used as a secondary antibody. Detection was carried out using CDP-Star and an image analyzer, LAS1000 (Fujifilm Corporation). Further, signals were quantified using Image Gauge (Fujifilm Corporation).
The expression vector for various chaperone gene combinations derived from O. minuta prepared in Example 4 was introduced into the YT-1 strain of Example 17. In the same manner as in Example 16, plasmids were cleaved with NotI to transform the YT-1 strain. After transformation, the resultant was applied on SD-Ura medium (2% glucose, 0.17% Yeast Nitrogen Base without amino acids (Difco), nucleic acid bases except for uracil, and amino acid mixture (20 to 400 mg/l)) and culture was carried out at 30° C. for 2 days. Whether or not the expression vector was incorporated into a chromosome was confirmed via colony PCR described in Example 5, an expressed strain having a coexpression vector (onaP09407) carrying two copies of the OmPDI1 expression cassette was designated as the YT-4 strain, an expressed strain having a coexpression vector (onaP09707) for OmPDI1 and OmKar2 was designated as the YT-5 strain, an expressed strain having a coexpression vector (onaP09507) for OmPDI1 and OmERO1 was designated as the YT-6 strain, and an expressed strain having a coexpression vector (onaP09607) for OmPDI1 and OmHSP104 was designated as the YT-7 strain. […]
Background: Immunoblotting shows a protein as a band on a membrane.

In data set [2] the target is T1, human alpha-2,3-sialic acid transferase (ST3GalI). The description is as above. Format: biochemical. To be noted: Table 2, 30 μl culture supernatant, Western blot signal intensity, with the elapse of time.

B1: YT-3: ST3GalI crude enzyme solution from O. minuta strain into which OmPDI1 (onaP03606) had been introduced (protein, UniProt Q11201 1-340, looked up)
CMP-N-acetylneuraminate-beta-g …: MVTLRKRTLKVLTFLVLFIFLTSFFLNYSHTMVATTWFPKQMVLELSENLKRLIKHRPCTCTHCIGQRKLSAWFDERFNQTMQPLLTAQNALLEDDTYRWWLRLQREKKPNNLNDTIKELFRVVPGNVDPMLEKRSVGCRRCAVVGNSGNLRESSYGPEIDSHDFVLRMNKAPTAGFEADVGTKTTHHLVYPESFRELGDNVSMILVPFKTIDLEWVVSAITTGTISHTYIPVPAKIRVKQDKILIYHPAFIKYVFDNWLQGHGRYPSTGILSVIFSMHVCDEVDLYGFGADSKGNWHHYWENNPSAGAFRKTGVHDADFESNVTATLASINKIRIFKGR
B1: the “difference in the expression levels (enzyme activity) compared with YT-2” value in data set [1] (96 hours later, FIG. 15) is recorded as “approximately 3.4 times”. For the same molecule, the Specific activity in data set [1] worked out at 3.36 pU/AU. In data set [1] (YT-3 versus YT-2), the “elevation of the specific activity by introduction of OmPDI1” value is reported as “approximately 1.6 times”.

B2: YT-2: ST3GalI crude enzyme solution from O. minuta strain with control plasmid pOMexGP1U, no OmPDI1 (protein, UniProt Q11201 1-340, looked up)
CMP-N-acetylneuraminate-beta-g …: MVTLRKRTLKVLTFLVLFIFLTSFFLNYSHTMVATTWFPKQMVLELSENLKRLIKHRPCTCTHCIGQRKLSAWFDERFNQTMQPLLTAQNALLEDDTYRWWLRLQREKKPNNLNDTIKELFRVVPGNVDPMLEKRSVGCRRCAVVGNSGNLRESSYGPEIDSHDFVLRMNKAPTAGFEADVGTKTTHHLVYPESFRELGDNVSMILVPFKTIDLEWVVSAITTGTISHTYIPVPAKIRVKQDKILIYHPAFIKYVFDNWLQGHGRYPSTGILSVIFSMHVCDEVDLYGFGADSKGNWHHYWENNPSAGAFRKTGVHDADFESNVTATLASINKIRIFKGR
Take B2: the Specific activity in data set [1] is reported as 2.13 pU/AU.

B3: YT-5: ST3GalI culture supernatant from strain coexpressing OmPDI1 and OmKar2 (protein, UniProt Q11201 1-340, looked up)
CMP-N-acetylneuraminate-beta-g …: MVTLRKRTLKVLTFLVLFIFLTSFFLNYSHTMVATTWFPKQMVLELSENLKRLIKHRPCTCTHCIGQRKLSAWFDERFNQTMQPLLTAQNALLEDDTYRWWLRLQREKKPNNLNDTIKELFRVVPGNVDPMLEKRSVGCRRCAVVGNSGNLRESSYGPEIDSHDFVLRMNKAPTAGFEADVGTKTTHHLVYPESFRELGDNVSMILVPFKTIDLEWVVSAITTGTISHTYIPVPAKIRVKQDKILIYHPAFIKYVFDNWLQGHGRYPSTGILSVIFSMHVCDEVDLYGFGADSKGNWHHYWENNPSAGAFRKTGVHDADFESNVTATLASINKIRIFKGR
For the molecule B3, the Activity in data set [1] (listed as YT-5-1) was 1.29 mU/ml; in data set [1] (listed as YT-5-2), 2.07 mU/ml; in data set [1] (listed as YT-5-3) it was 1.86 mU/ml; in data set [1] (listed as YT-5-4), 2.29 mU/ml. Also, the Specific activity was found to be 10.7 pU/AU in data set [2] (listed as YT-5-1), 15.8 pU/AU in data set [2] (listed as YT-5-2), 12.3 pU/AU in data set [2] (listed as YT-5-3) and 14.9 pU/AU in data set [2] (listed as YT-5-4).
